For data set [1], the target named is T1, drUvrD FL (WT) (Deinococcus radiodurans, UniProt Q9RTI9 1-745).
T1 sequence: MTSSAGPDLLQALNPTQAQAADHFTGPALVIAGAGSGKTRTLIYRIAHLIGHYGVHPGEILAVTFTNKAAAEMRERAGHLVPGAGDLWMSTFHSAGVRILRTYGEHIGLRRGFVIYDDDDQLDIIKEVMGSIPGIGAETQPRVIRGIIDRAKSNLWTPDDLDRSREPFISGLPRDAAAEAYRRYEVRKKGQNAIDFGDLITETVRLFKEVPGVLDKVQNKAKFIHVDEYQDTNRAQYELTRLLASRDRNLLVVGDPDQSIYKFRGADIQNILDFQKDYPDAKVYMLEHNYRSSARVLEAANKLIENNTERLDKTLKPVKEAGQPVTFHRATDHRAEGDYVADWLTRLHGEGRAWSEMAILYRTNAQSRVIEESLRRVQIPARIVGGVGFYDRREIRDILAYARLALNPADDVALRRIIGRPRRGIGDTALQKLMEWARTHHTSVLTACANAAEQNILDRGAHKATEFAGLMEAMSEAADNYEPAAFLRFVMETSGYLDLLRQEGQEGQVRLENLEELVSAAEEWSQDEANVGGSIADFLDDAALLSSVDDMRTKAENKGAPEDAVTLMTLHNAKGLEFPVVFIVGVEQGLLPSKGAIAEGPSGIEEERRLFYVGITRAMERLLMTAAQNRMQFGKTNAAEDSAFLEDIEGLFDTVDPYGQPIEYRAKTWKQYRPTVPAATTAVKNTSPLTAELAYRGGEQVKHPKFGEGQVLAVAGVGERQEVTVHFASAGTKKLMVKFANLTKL
Description: fluorescence anisotropy; 1 mM AMPPNP; Fluorescence anisotropy: buffer A (composition not in material) + 0.05% Tween 20, 0.1 mg/mL BSA, 1 mM AMPPNP; 2.5 nM DNA, 0-8 µM protein, 80 µl, room temperature; single-site fit. To be noted: protein: recombinant, tags: N-terminal His-tag cleaved with TEV (pET151d), label: fluorescein (internal dT12), 25 bp duplex, other end blunt. (Polarisation of emitted light reports the rotation of a fluorescent probe.)

In data set [2] the target is T2, drUvrD G426T (Deinococcus radiodurans, UniProt Q9RTI9 1-745, G426T).
T2 sequence: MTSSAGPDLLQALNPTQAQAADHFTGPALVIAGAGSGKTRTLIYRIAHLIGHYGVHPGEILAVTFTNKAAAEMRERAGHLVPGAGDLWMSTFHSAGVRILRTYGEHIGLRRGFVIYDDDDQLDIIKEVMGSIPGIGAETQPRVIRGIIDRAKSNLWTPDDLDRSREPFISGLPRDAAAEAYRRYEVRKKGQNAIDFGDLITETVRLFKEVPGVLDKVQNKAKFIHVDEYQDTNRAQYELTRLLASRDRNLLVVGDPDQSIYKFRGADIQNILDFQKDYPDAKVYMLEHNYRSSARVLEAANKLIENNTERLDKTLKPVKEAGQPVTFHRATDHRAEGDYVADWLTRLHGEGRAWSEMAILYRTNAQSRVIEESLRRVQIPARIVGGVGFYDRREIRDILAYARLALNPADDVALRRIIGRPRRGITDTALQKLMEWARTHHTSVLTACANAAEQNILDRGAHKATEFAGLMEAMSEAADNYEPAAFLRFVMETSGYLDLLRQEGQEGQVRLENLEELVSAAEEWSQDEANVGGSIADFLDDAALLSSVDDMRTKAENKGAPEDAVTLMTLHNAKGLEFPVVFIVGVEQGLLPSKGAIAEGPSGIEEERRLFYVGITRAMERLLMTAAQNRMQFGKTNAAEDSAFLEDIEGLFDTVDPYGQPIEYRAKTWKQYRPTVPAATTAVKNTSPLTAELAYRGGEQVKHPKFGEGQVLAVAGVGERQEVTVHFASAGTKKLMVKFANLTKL
The data set is described as follows: fluorescence anisotropy; 1 mM AMPPNP; not significantly different from WT; Fluorescence anisotropy: buffer A (composition not in material) + 0.05% Tween 20, 0.1 mg/mL BSA, 1 mM AMPPNP; 2.5 nM DNA, 0-8 µM protein, 80 µl, room temperature; single-site fit. Particulars: protein: recombinant, tags: N-terminal His-tag cleaved with TEV (pET151d), label: fluorescein (internal dT12), 25 bp duplex, other end blunt.

Data set [3] addresses T3, drUvrDΔC (Deinococcus radiodurans, UniProt Q9RTI9 1-665, del666-745).
T3 sequence: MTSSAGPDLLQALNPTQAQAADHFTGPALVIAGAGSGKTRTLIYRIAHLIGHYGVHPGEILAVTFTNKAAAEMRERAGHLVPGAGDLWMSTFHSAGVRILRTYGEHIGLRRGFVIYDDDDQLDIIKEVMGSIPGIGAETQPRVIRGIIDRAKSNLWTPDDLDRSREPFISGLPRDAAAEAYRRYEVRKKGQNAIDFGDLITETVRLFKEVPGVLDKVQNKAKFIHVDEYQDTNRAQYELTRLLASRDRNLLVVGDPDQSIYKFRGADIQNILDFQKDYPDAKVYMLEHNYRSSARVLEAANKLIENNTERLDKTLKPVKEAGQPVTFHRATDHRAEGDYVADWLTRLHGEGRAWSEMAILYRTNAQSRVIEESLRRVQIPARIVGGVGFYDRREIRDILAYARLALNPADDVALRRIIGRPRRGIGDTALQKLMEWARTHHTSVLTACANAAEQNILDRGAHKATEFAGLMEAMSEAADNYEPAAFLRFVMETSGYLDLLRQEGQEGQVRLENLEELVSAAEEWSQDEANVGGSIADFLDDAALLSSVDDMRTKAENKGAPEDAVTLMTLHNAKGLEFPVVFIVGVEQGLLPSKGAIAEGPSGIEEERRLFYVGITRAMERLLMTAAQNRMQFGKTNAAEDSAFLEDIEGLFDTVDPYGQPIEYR
Description: X-ray crystallography (3.0 Å); fluorescein-dT21 DNA; Fluorescence anisotropy: buffer A (composition not in material) + 0.05% Tween 20, 0.1 mg/mL BSA, 1 mM AMPPNP; 2.5 nM DNA, 0-8 µM protein, 80 µl, room temperature; single-site fit. To be noted: protein: recombinant; tags: N-terminal His-tag cleaved with TEV (pET151d); chain copies: 2; label: fluorescein (internal dT21); 18 bp duplex, 3' overhang 7 nt at both ends.

Substrate in data set [4]: Nc1ncnc2c1ncn2[C@@H]1O[C@H](COP(=O)(O)OP(=O)(O)OP(=O)(O)O)[C@@H](O)[C@H]1O
Description: spectrophotometric ATPase assay. In kind it is biochemical, Deinococcus radiodurans. To be noted: ssDNA-stimulated: excess 25mer polydT (10xKssDNA), ATP 0-1 mM, 100 nM enzyme, 5 mM MgCl2, 100 mM NaCl, pH 8.0, 25°C. The text has this: spectrophotometric ATPase assay on drUvrD^FL | determine their apparent turnover rates (Kcat) for ATP hydrolysis, along with their Km for ATP

Substrate in data set [5]: Nc1ncnc2c1ncn2[C@@H]1O[C@H](COP(=O)(O)OP(=O)(O)OP(=O)(O)O)[C@@H](O)[C@H]1O
The data set is described as follows: spectrophotometric ATPase assay. In kind it is biochemical, Deinococcus radiodurans. Particulars: ssDNA-stimulated: excess 25mer polydT (10xKssDNA), ATP 0-1 mM, 100 nM enzyme, 5 mM MgCl2, 100 mM NaCl, pH 8.0, 25°C. The text has this: spectrophotometric ATPase assay on drUvrD^∆C | ATPase data measured on drUvrD^FL and drUvrD^∆C
The source holds these as a separate data set.

The target in data set [6] is T1, drUvrD FL (WT). Description: X-ray crystallography (4.0 Å); AMPPNP, P21; Fluorescence anisotropy: buffer A (composition not in material) + 0.05% Tween 20, 0.1 mg/mL BSA, 1 mM AMPPNP; 2.5 nM DNA, 0-8 µM protein, 80 µl, room temperature; single-site fit. Particulars: protein: recombinant; tags: N-terminal His-tag cleaved with TEV (pET151d); 21 bp duplex, 3' overhang 7 nt (dT7) at both ends.

Data set [7] concerns the target T3, drUvrDΔC. The data set is described as follows: X-ray crystallography (2.5 Å); AMPPNP, form I, P212121; Fluorescence anisotropy: buffer A (composition not in material) + 0.05% Tween 20, 0.1 mg/mL BSA, 1 mM AMPPNP; 2.5 nM DNA, 0-8 µM protein, 80 µl, room temperature; single-site fit. To be noted: protein: recombinant; tags: N-terminal His-tag cleaved with TEV (pET151d); chain copies: 2; 18 bp duplex, 3' overhang 7 nt (dT7) at both ends.

[8] abbreviates: 5' overhang 15 nt (dT15) on strand 2.
[9] abbreviates: 3' overhang 15 nt (dT15) on strand 2.

Consider seven molecules from article PMC3797037, “Structural and Mechanistic Insight into DNA Unwinding by Deinococcus radiodurans UvrD” (PLoS ONE, 2013).

B1: 5'-tailed dsDNA (H1T12/H5-15) (dsDNA)
DNA 1: TCGGTACGACCTGCGAGCACTGCTT
DNA 2: TTTTTTTTTTTTTTTAAGCAGTGCTCGCAGGTCGTACCGA
modifications: fluorescein-dT at position 12 of strand 1
Regarding B1, the Kd (usually the free concentration of one partner at which half of the binding sites on the other are occupied at equilibrium, for simple one-to-one binding) in data set [1] (setting [8]) came out at 480 nM. In addition, the binding result in data set [2] (setting [8]) was “binds”.

B2: For25-21F/Rev25-21F (dsDNA)
DNA 1: GCAGTGCTCGCAGGTCGTTTTTTTT
DNA 2: ACGACCTGCGAGCACTGCTTTTTTT
modifications: fluorescein-dT at position 21 of both strands
B2: in data set [3], the binding result was “binds”.

B3: drUvrD^FL (Deinococcus radiodurans R1 = ATCC 13939 = DSM 20539) (protein)
chain: MTSSAGPDLLQALNPTQAQAADHFTGPALVIAGAGSGKTRTLIYRIAHLIGHYGVHPGEILAVTFTNKAAAEMRERAGHLVPGAGDLWMSTFHSAGVRILRTYGEHIGLRRGFVIYDDDDQLDIIKEVMGSIPGIGAETQPRVIRGIIDRAKSNLWTPDDLDRSREPFISGLPRDAAAEAYRRYEVRKKGQNAIDFGDLITETVRLFKEVPGVLDKVQNKAKFIHVDEYQDTNRAQYELTRLLASRDRNLLVVGDPDQSIYKFRGADIQNILDFQKDYPDAKVYMLEHNYRSSARVLEAANKLIENNTERLDKTLKPVKEAGQPVTFHRATDHRAEGDYVADWLTRLHGEGRAWSEMAILYRTNAQSRVIEESLRRVQIPARIVGGVGFYDRREIRDILAYARLALNPADDVALRRIIGRPRRGIGDTALQKLMEWARTHHTSVLTACANAAEQNILDRGAHKATEFAGLMEAMSEAADNYEPAAFLRFVMETSGYLDLLRQEGQEGQVRLENLEELVSAAEEWSQDEANVGGSIADFLDDAALLSSVDDMRTKAENKGAPEDAVTLMTLHNAKGLEFPVVFIVGVEQGLLPSKGAIAEGPSGIEEERRLFYVGITRAMERLLMTAAQNRMQFGKTNAAEDSAFLEDIEGLFDTVDPYGQPIEYRAKTWKQYRPTVPAATTAVKNTSPLTAELAYRGGEQVKHPKFGEGQVLAVAGVGERQEVTVHFASAGTKKLMVKFANLTKL
notes: full-length (residues to 745), pET151d, E. coli BL21 (DE3), N-terminal His-tag cut with TEV protease; crystallized as a monomer, two per DNA duplex
B3: in data set [4], the Michaelis-Menten constant (Km) (in general, the substrate concentration at which the rate is half of its maximum) came out at 62.1 ± 6.6 µM and the kcat (usually the maximal rate divided by the concentration of active sites) came out at 149.3 ± 3.5 s⁻¹.

B4: drUvrD^∆C (Deinococcus radiodurans R1 = ATCC 13939 = DSM 20539) (protein)
chain: MTSSAGPDLLQALNPTQAQAADHFTGPALVIAGAGSGKTRTLIYRIAHLIGHYGVHPGEILAVTFTNKAAAEMRERAGHLVPGAGDLWMSTFHSAGVRILRTYGEHIGLRRGFVIYDDDDQLDIIKEVMGSIPGIGAETQPRVIRGIIDRAKSNLWTPDDLDRSREPFISGLPRDAAAEAYRRYEVRKKGQNAIDFGDLITETVRLFKEVPGVLDKVQNKAKFIHVDEYQDTNRAQYELTRLLASRDRNLLVVGDPDQSIYKFRGADIQNILDFQKDYPDAKVYMLEHNYRSSARVLEAANKLIENNTERLDKTLKPVKEAGQPVTFHRATDHRAEGDYVADWLTRLHGEGRAWSEMAILYRTNAQSRVIEESLRRVQIPARIVGGVGFYDRREIRDILAYARLALNPADDVALRRIIGRPRRGIGDTALQKLMEWARTHHTSVLTACANAAEQNILDRGAHKATEFAGLMEAMSEAADNYEPAAFLRFVMETSGYLDLLRQEGQEGQVRLENLEELVSAAEEWSQDEANVGGSIADFLDDAALLSSVDDMRTKAENKGAPEDAVTLMTLHNAKGLEFPVVFIVGVEQGLLPSKGAIAEGPSGIEEERRLFYVGITRAMERLLMTAAQNRMQFGKTNAAEDSAFLEDIEGLFDTVDPYGQPIEYR
notes: C-terminally truncated, missing residues 666-745; pET151d, E. coli BL21 (DE3), N-terminal His-tag cut with TEV protease; crystallized as a monomer, two per DNA duplex
With B4, in data set [5], the Km stood at 77.0 ± 16.9 µM and the kcat worked out at 213.2 ± 11.7 s⁻¹.

B5: For28/Rev28 (dsDNA)
DNA 1: GCAGTGCTCGCAGGTCGTACCTTTTTTT
DNA 2: GGTACGACCTGCGAGCACTGCTTTTTTT
B5: the binding result in data set [6] is reported as “binds”.

B6: For25/Rev25 (dsDNA)
DNA 1: GCAGTGCTCGCAGGTCGTTTTTTTT
DNA 2: ACGACCTGCGAGCACTGCTTTTTTT
Regarding B6, the binding result in data set [7] is reported as “binds”.

B7: 3'-tailed dsDNA (H1T12/H3-15) (dsDNA)
DNA 1: TCGGTACGACCTGCGAGCACTGCTT
DNA 2: AAGCAGTGCTCGCAGGTCGTACCGATTTTTTTTTTTTTTT
modifications: fluorescein-dT at position 12 of strand 1
As for B7, the Kd in data set [1] (setting [9]) stood at 360 nM. Besides, the binding result in data set [2] (setting [9]) is “binds”.
